Reference: patent US20170306033A1 (Amgen, published 2017)
Changes are numbered by the printed parent chain.

B1: iPS:327091 (bispecific antibody, human IgG1, kappa, N297G)
light 1: not shown
heavy 1: not shown
light 2: EIVLTQSPGTLSLSPGERATLSCRASQSVSSGYLTWYQQKPGQAPRLLIYGASSRATGIPDRFSGSGSGTDFTLTISRLEPEDFAVYYCQQYGNSLSRFGQGTKLEIKRTVAAPSVFIFPPSDEQLKSGTASVVCLLNNFYPREAKVQWKVDNALQSGNSQESVTEQDSKDSTYSLKSTLTLSKADYEKHKVYACEVTHQGLSSPVTKSFNRGEC
heavy 2: not shown
B2: iPS:327023 (bispecific antibody, human IgG1, kappa, N297G)
light 1: DIQMTQSPSSLSASVGDRITITCRASQSISRYLNWYQQKPGKAPKLLIYAASSLQSGIPSRFSGSGSGTDFTLTINSLQPEDFATYFCQQSYSPPFTFGEGTKVDIKRTVAAPSVFIFPPSDEQLKSGTASVVCLLNNFYPREAKVQWKVDNALQSGNSQESVTEQDSKDSTYSLESTLTLSKADYEKHKVYACEVTHQGLSSPVTKSFNRGEC
heavy 1: not shown
light 2: B1 light 2 with Q101K
heavy 2: not shown
B3: iPS:327092 (bispecific antibody, human IgG1, kappa, N297G)
light 1: not shown
heavy 1: not shown
light 2: B1 light 2
heavy 2: not shown
B4: iPS:327024 (bispecific antibody, human IgG1, kappa, N297G)
light 1: not shown
heavy 1: not shown
light 2: B1 light 2 with Q101K
heavy 2: not shown
B5: iPS:326626 (bispecific antibody, human IgG2, kappa, lambda)
light 1: not shown
heavy 1: QVQLQQSGPGLVKPSQTLSLTCAISGDSVSSNSATWNWIRQSPSRGLEWLGRTYYRSKWSNHYAVSVKSRITINPDTSKSQFSLQLNSVTPEDTAVYYCARGTWKQLWFLDHWGQGTLVTVSSASTKGPSVFPLAPCSRSTSESTAALGCLVKDYFPEPVTVSWNSGALTSGVHTFPAVLQSSGLYSLKSVVTVPSSNFGTQTYTCNVDHKPSNTKVDKTVERKCCVECPPCPAPPVAGPSVFLFPPKPKDTLMISRTPEVTCVVVDVSHEDPEVQFNWYVDGVEVHNAKTKPREEQFNSTFRVVSVLTVVHQDWLNGKEYKCKVSNKGLPAPIEKTISKTKGQPREPQVYTLPPSREEMTKNQVSLTCLVDGFYPSDIAVEWESNGQPENNYDTTPPMLDSDGSFFLYSDLTVDKSRWQQGNVFSCSVMHEALHNHYTQKSLSLSPGK
light 2: not shown
heavy 2: not shown
B6: iPS:327093 (bispecific antibody, human IgG1, kappa, N297G)
light 1: DIQLTQSPSFLSASVGDRVTITCRASQSIGRSLHWYQQKPGKAPKLLIKYASQSLSGVPSRFSGSGSGTEFTLTISSLQPEDFATYYCHQSSRLPFTFGPGTKVDIKRTVAAPSVFIFPPSDEQLKSGTASVVCLLNNFYPREAKVQWKVDNALQSGNSQESVTEQDSKDSTYSLESTLTLSKADYEKHKVYACEVTHQGLSSPVTKSFNRGEC
heavy 1: not shown
light 2: B1 light 2
heavy 2: not shown
B7: iPS:327025 (bispecific antibody, human IgG1, kappa, N297G)
light 1: B6 light 1 with P100E
heavy 1: not shown
light 2: B1 light 2 with Q101K
heavy 2: not shown
B8: iPS:327094 (bispecific antibody, human IgG1, kappa, N297G)
light 1: EIVLTQSPATLSLSPGERATLSCRASQSVGRSLHWYQQKPGQAPRLLIKYASQSLSGIPARFSGSGSGTDFTLTISSLEPEDFAVYYCHQSSRLPFTFGPGTKVDIKRTVAAPSVFIFPPSDEQLKSGTASVVCLLNNFYPREAKVQWKVDNALQSGNSQESVTEQDSKDSTYSLESTLTLSKADYEKHKVYACEVTHQGLSSPVTKSFNRGEC
heavy 1: not shown
light 2: B1 light 2
heavy 2: not shown
B9: iPS:327106 (bispecific antibody, human IgG1, kappa, lambda, N297G)
light 1: not shown
heavy 1: not shown
light 2: not shown
heavy 2: EVQLVESGGGLVKPGGSLRLSCAASGFTFGNAWMSWVRQAPGKELEWVGRIKSKTDGGTTDYAAPVKGRFTISRDDSKNTLYLQMNSLKTEDTAVYFCTTDRTGYSISWSSYYYYYGMDVWGQGTTVTVSSASTKGPSVFPLAPSSKSTSGGTAALGCLVKDYFPEPVTVSWNSGALTSGVHTFPAVLQSSGLYSLESVVTVPSSSLGTQTYICNVNHKPSNTKVDKKVEPKSCDKTHTCPPCPAPELLGGPSVFLFPPKPKDTLMISRTPEVTCVVVDVSHEDPEVKFNWYVDGVEVHNAKTKPCEEQYGSTYRCVSVLTVLHQDWLNGKEYKCKVSNKALPAPIEKTISKAKGQPREPQVYTLPPSRKEMTKNQVSLTCLVKGFYPSDIAVEWESNGQPENNYKTTPPVLKSDGSFFLYSKLTVDKSRWQQGNVFSCSVMHEALHNHYTQKSLSLSPGK
B10: iPS:327107 (bispecific antibody, human IgG1, kappa, lambda, N297G)
light 1: B6 light 1 with P100E
heavy 1: not shown
light 2: not shown
heavy 2: B9 heavy 2
B11: iPS:327103 (bispecific antibody, human IgG1, kappa, lambda, N297G)
light 1: B6 light 1
heavy 1: not shown
light 2: not shown
heavy 2: not shown
B12: iPS:327108 (bispecific antibody, human IgG1, kappa, lambda, N297G)
light 1: B8 light 1 with P100E
heavy 1: not shown
light 2: not shown
heavy 2: B9 heavy 2
B13: iPS:327104 (bispecific antibody, human IgG1, kappa, lambda, N297G)
light 1: B8 light 1
heavy 1: not shown
light 2: not shown
heavy 2: not shown
B14: iPS:326654 (bispecific antibody, human IgG2, kappa, lambda)
light 1: B8 light 1
heavy 1: QVQLVESGGGVVQPGRSLRLSCAASGFTFSRFAMHWVRQAPGKGLEWVAVISYDGGNKYYAESVKGRFTISRDNSKNTLYLQMNSLRAEDTALFYCARGYDVLTGYPDYWGQGTLVTVSSASTKGPSVFPLAPCSRSTSESTAALGCLVKDYFPEPVTVSWNSGALTSGVHTFPAVLQSSGLYSLKSVVTVPSSNFGTQTYTCNVDHKPSNTKVDKTVERKCCVECPPCPAPPVAGPSVFLFPPKPKDTLMISRTPEVTCVVVDVSHEDPEVQFNWYVDGVEVHNAKTKPREEQFNSTFRVVSVLTVVHQDWLNGKEYKCKVSNKGLPAPIEKTISKTKGQPREPQVYTLPPSREEMTKNQVSLTCLVDGFYPSDIAVEWESNGQPENNYDTTPPMLDSDGSFFLYSDLTVDKSRWQQGNVFSCSVMHEALHNHYTQKSLSLSPGK
light 2: not shown
heavy 2: not shown
B15: iPS:327105 (bispecific antibody, human IgG1, kappa, lambda, N297G)
light 1: B2 light 1
heavy 1: not shown
light 2: not shown
heavy 2: B9 heavy 2
B16: iPS:327111 (bispecific antibody, human IgG1, kappa, lambda, N297G)
light 1: B6 light 1
heavy 1: not shown
light 2: not shown
heavy 2: not shown

These binders were tested against human CGRP receptor (human, UniProt Q16602 23-461; O60894 27-148) (assay: cell-based or functional assay).
human CGRP receptor, sequence (Q16602 23-461 limits assumed, chain 1 of 2): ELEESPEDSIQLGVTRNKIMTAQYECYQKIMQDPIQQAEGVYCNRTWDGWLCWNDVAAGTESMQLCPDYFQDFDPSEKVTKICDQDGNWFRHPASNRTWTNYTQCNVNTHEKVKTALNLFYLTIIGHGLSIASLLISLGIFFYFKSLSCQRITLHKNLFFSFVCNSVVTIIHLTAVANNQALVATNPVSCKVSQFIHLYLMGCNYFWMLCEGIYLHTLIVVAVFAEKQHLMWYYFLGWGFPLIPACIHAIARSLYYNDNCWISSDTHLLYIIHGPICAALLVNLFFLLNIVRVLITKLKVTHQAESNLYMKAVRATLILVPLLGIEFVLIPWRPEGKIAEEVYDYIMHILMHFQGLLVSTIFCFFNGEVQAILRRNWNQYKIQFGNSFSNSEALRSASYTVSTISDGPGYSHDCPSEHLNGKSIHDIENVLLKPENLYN
human CGRP receptor, sequence (O60894 27-148 limits assumed, chain 2 of 2): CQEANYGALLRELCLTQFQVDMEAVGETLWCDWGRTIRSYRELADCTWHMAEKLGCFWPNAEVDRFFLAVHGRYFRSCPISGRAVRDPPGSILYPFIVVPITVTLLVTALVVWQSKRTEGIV

| Binder | % inhibition of human CGRPR [%] |
| --- | --- |
| B1 | 65 |
| B2 | 74 |
| B3 | 73 |
| B4 | 75 |
| B5 | 96 |
| B6 | 70 |
| B7 | 76 |
| B8 | 73 |
| B9 | 71 |
| B10 | 76 |
| B11 | 82 |
| B12 | 66 |
| B13 | 81 |
| B14 | 79 |
| B15 | 81 |
| B16 | 88 |

Each binder was assayed against T1, human PAC1 receptor (human, UniProt P41586 21-468) (assay: cell-based or functional assay).
T1 sequence: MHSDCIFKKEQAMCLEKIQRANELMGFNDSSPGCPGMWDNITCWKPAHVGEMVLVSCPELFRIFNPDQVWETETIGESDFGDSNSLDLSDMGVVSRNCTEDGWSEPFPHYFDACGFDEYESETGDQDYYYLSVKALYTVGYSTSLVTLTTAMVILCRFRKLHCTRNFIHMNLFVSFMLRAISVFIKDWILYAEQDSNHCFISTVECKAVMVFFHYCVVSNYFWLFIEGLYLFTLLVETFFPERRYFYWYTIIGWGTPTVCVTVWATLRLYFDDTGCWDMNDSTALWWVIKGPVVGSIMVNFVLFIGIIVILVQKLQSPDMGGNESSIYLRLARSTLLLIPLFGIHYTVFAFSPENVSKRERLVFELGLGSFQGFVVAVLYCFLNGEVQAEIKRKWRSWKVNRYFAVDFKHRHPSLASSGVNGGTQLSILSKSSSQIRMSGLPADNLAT

| Binder | % inhibition of human PAC1 [%] |
| --- | --- |
| B1 | 67 |
| B2 | 32 |
| B3 | 52 |
| B4 | 7 |
| B5 | 86 |
| B6 | 68 |
| B7 | 21 |
| B8 | 91 |
| B9 | 6 |
| B10 | 22 |
| B11 | 21 |
| B12 | 74 |
| B13 | 95 |
| B14 | 99 |
| B15 | 63 |
| B16 | 65 |
